The values below come from paper PMC10871369 (bioRxiv, 2024).

Test [1] relates to B55. In words: Binding of proteins to panel of purified B55 mutants. The following applies: panel of B55 mutants covering patch 1-3 residues.
Test [2] deals with B55. Nature of the test: MS of B55 WT, V228A, I284A, S287A and D340A immunopurifications. Type of test: binding. The following applies: B55 S287A vs WT immunopurifications.

B1: IER2: helix-loop-helix B55 binder (protein, UniProt Q9BTL4 1-223, looked up)
Immediate early response gene …: MEVQKEAQRIMTLSVWKMYHSRMQRGGLRLHRSLQLSLVMRSARELYLSAKVEALEPEVSLPAALPSDPRLHPPREAESTAETATPDGEHPFPEPMDTQEAPTAEETSACCAPRPAKVSRKRRSSSLSDGGDAGLVPSKKARLEEKEEEEGASSEVADRLQPPPAQAEGAFPNLARVLQRRFSGLLNCSPAAPPTAPPACEAKPACRPADSMLNVLVRAVVAF
Turning to B1, the “B55 patch requirement for binding” value in the test with B55 [1] is “requirements from residues in patch 1 and 3”. For the same molecule, the “requirement of B55 S287 (patch 2) for binding” value in the test on B55 [2] is “does not”.

B2: CDCA4: helix-loop-helix B55 binder (SERTA domain) (protein, UniProt Q9BXL8 1-241, looked up)
Cell division …: MFARGLKRKCVGHEEDVEGALAGLKTVSSYSLQRQSLLDMSLVKLQLCHMLVEPNLCRSVLIANTVRQIQEEMTQDGTWRTVAPQAAERAPLDRLVSTEILCRAAWGQEGAHPAPGLGDGHTQGPVSDLCPVTSAQAPRHLQSSAWEMDGPRENRGSFHKSLDQIFETLETKNPSCMEELFSDVDSPYYDLDTVLTGMMGGARPGPCEGLEGLAPATPGPSSSCKSDLGELDHVVEILVET
As to B2, the “B55 patch requirement for binding” value in the test with B55 [1] was “requirements from residues in patch 1 and 3”.
